Test results reported in article doi:10.1101/2024.01.29.577165.

Legend:
[1] = target: Grappling Hook Protein A (GhpA), assembled as the grappling hook (Aureispira sp. CCB-QB1); experiment: cryo-EM structure
[2] = target: Grappling Hook Protein A (GhpA), assembled as the grappling hook (Aureispira sp. CCB-QB1); experiment: cryo-electron tomography with subtomogram averaging

Grappling Hook Protein A (GhpA), assembled as the grappling hook (natural protein)
stoichiometry N [1]: 7 | stoichiometry N [2]: 7
